How the values were obtained:
Lin28 (Lin28A) [1] = molecular target: T1, Lin28 (Lin28A) (Mus musculus (murine), UniProt Q8K3Y3 1-209); experiment: EMSA; Hill n = 2 ± 1; EMSA: 50 mM Tris pH 7.6, 50 mM NaCl, 10% glycerol, 0.05% NP-40 alternative, 2 mM DTT, 4°C; 2-AP: 50 mM Tris pH 7.6, 50 mM NaCl, 10% glycerol, 4°C; FRET: EMSA buffer, 30°C; settings: protein: recombinant; label: 5'-32P; hairpin
T1 sequence: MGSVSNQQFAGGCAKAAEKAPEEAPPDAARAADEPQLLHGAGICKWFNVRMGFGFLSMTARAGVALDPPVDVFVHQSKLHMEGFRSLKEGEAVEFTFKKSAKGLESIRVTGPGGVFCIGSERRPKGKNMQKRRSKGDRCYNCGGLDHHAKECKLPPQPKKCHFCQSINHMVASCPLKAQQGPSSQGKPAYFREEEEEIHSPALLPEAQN

Lin28 (Lin28A) [2] = molecular target: T1, Lin28 (Lin28A); experiment: EMSA; Hill n = 1.3 ± 0.1; EMSA: 50 mM Tris pH 7.6, 50 mM NaCl, 10% glycerol, 0.05% NP-40 alternative, 2 mM DTT, 4°C; 2-AP: 50 mM Tris pH 7.6, 50 mM NaCl, 10% glycerol, 4°C; FRET: EMSA buffer, 30°C; settings: protein: recombinant; label: 5'-32P; hairpin
Lin28 119-180 [3] = molecular target: T2, Lin28 119-180 (Mus musculus (murine), UniProt Q8K3Y3 119-180); experiment: EMSA; EMSA: 50 mM Tris pH 7.6, 50 mM NaCl, 10% glycerol, 0.05% NP-40 alternative, 2 mM DTT, 4°C; 2-AP: 50 mM Tris pH 7.6, 50 mM NaCl, 10% glycerol, 4°C; FRET: EMSA buffer, 30°C; settings: protein: recombinant; label: 5'-32P
T2 sequence: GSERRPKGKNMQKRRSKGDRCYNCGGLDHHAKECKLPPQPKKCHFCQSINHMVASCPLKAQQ

Lin28 (Lin28A) [4] = molecular target: T1, Lin28 (Lin28A); experiment: as above; settings: protein: recombinant; label: 5'-32P
Lin28 (Lin28A) [5] = molecular target: T1, Lin28 (Lin28A); experiment: EMSA; 1:1 complex; EMSA: 50 mM Tris pH 7.6, 50 mM NaCl, 10% glycerol, 0.05% NP-40 alternative, 2 mM DTT, 4°C; 2-AP: 50 mM Tris pH 7.6, 50 mM NaCl, 10% glycerol, 4°C; FRET: EMSA buffer, 30°C; settings: protein: recombinant; label: 5'-32P; hairpin
Lin28 (Lin28A) [6] = molecular target: T1, Lin28 (Lin28A); experiment: 2-AP fluorescence; 500 nM RNA (stoichiometric); EMSA: 50 mM Tris pH 7.6, 50 mM NaCl, 10% glycerol, 0.05% NP-40 alternative, 2 mM DTT, 4°C; 2-AP: 50 mM Tris pH 7.6, 50 mM NaCl, 10% glycerol, 4°C; FRET: EMSA buffer, 30°C; settings: protein: recombinant; label: 2-AP; hairpin
Lin28 (Lin28A) [7] = molecular target: T1, Lin28 (Lin28A); experiment: 2-AP fluorescence; 500 nM RNA; second Lin28; EMSA: 50 mM Tris pH 7.6, 50 mM NaCl, 10% glycerol, 0.05% NP-40 alternative, 2 mM DTT, 4°C; 2-AP: 50 mM Tris pH 7.6, 50 mM NaCl, 10% glycerol, 4°C; FRET: EMSA buffer, 30°C; settings: protein: recombinant; label: 2-AP; hairpin
Lin28 (Lin28A) [8] = molecular target: T1, Lin28 (Lin28A); experiment: FRET strand displacement; 25 nM RNA, 30°C; ΔFRETmax 0.84; EMSA: 50 mM Tris pH 7.6, 50 mM NaCl, 10% glycerol, 0.05% NP-40 alternative, 2 mM DTT, 4°C; 2-AP: 50 mM Tris pH 7.6, 50 mM NaCl, 10% glycerol, 4°C; FRET: EMSA buffer, 30°C; settings: protein: recombinant; label: 5'-Cy5 (S1); 5'-Cy3 (S3); blunt, 5-nt G-rich bulge in strand 1
Lin28 119-180 [9] = molecular target: T2, Lin28 119-180; experiment: FRET strand displacement; 25 nM RNA, 30°C; ΔFRETmax 0.24, binding without displacement; EMSA: 50 mM Tris pH 7.6, 50 mM NaCl, 10% glycerol, 0.05% NP-40 alternative, 2 mM DTT, 4°C; 2-AP: 50 mM Tris pH 7.6, 50 mM NaCl, 10% glycerol, 4°C; FRET: EMSA buffer, 30°C; settings: protein: recombinant; label: 5'-Cy5 (S1); 5'-Cy3 (S3); blunt, 5-nt G-rich bulge in strand 1
Lin28 C139A/C161A [10] = molecular target: T3, Lin28 C139A/C161A (Mus musculus (murine), UniProt Q8K3Y3 1-209, C139A;C161A); experiment: FRET strand displacement; 25 nM RNA, 30°C; ΔFRETmax 0.77; EMSA: 50 mM Tris pH 7.6, 50 mM NaCl, 10% glycerol, 0.05% NP-40 alternative, 2 mM DTT, 4°C; 2-AP: 50 mM Tris pH 7.6, 50 mM NaCl, 10% glycerol, 4°C; FRET: EMSA buffer, 30°C; settings: protein: recombinant; label: 5'-Cy5 (S1); 5'-Cy3 (S3); blunt, 5-nt G-rich bulge in strand 1
T3 sequence: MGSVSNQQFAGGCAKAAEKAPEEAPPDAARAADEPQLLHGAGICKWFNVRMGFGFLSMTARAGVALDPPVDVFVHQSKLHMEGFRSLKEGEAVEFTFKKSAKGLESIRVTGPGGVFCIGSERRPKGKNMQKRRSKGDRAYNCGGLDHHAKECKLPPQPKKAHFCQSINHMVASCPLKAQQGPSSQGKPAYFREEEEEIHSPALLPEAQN

Lin28 (Lin28A) [11] = molecular target: T1, Lin28 (Lin28A); experiment: EMSA; Hill n = 1.46 ± 0.01; EMSA: 50 mM Tris pH 7.6, 50 mM NaCl, 10% glycerol, 0.05% NP-40 alternative, 2 mM DTT, 4°C; 2-AP: 50 mM Tris pH 7.6, 50 mM NaCl, 10% glycerol, 4°C; FRET: EMSA buffer, 30°C; settings: protein: recombinant; label: 5'-32P; hairpin
Lin28 119-180 [12] = molecular target: T2, Lin28 119-180; experiment: EMSA (stoichiometric); 0.5 µM RNA; EMSA: 50 mM Tris pH 7.6, 50 mM NaCl, 10% glycerol, 0.05% NP-40 alternative, 2 mM DTT, 4°C; 2-AP: 50 mM Tris pH 7.6, 50 mM NaCl, 10% glycerol, 4°C; FRET: EMSA buffer, 30°C; settings: protein: recombinant, label: 5'-32P
Lin28 (Lin28A) [13] = molecular target: T1, Lin28 (Lin28A); experiment: as above; settings: protein: recombinant, label: 5'-32P
[14] = molecular target: T4, Lin28 C139A/C161A;Lin28 119-180 (Mus musculus (murine);Mus musculus …, UniProt Q8K3Y3;Q8K3Y3 1-209;119-180, C139A;C161A|); experiment: EMSA (stoichiometric); 1:1:1 and 1:1:2 RNA:P3:P2 complexes; EMSA: 50 mM Tris pH 7.6, 50 mM NaCl, 10% glycerol, 0.05% NP-40 alternative, 2 mM DTT, 4°C; 2-AP: 50 mM Tris pH 7.6, 50 mM NaCl, 10% glycerol, 4°C; FRET: EMSA buffer, 30°C; settings: protein: recombinant;recombinant; tags: ;; label: 5'-32P; hairpin with 5' G-rich bulge and internal loop
T4 sequence 1: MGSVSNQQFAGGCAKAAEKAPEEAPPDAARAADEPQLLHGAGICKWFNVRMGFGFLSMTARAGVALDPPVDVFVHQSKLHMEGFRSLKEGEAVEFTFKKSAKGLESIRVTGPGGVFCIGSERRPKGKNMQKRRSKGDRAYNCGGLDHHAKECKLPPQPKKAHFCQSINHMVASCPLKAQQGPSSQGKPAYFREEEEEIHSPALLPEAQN
T4 sequence 2: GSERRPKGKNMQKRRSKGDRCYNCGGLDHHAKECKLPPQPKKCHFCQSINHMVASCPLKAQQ

Lin28 C139A/C161A [15] = molecular target: T3, Lin28 C139A/C161A; experiment: EMSA (stoichiometric); 0.5 µM RNA; EMSA: 50 mM Tris pH 7.6, 50 mM NaCl, 10% glycerol, 0.05% NP-40 alternative, 2 mM DTT, 4°C; 2-AP: 50 mM Tris pH 7.6, 50 mM NaCl, 10% glycerol, 4°C; FRET: EMSA buffer, 30°C; settings: protein: recombinant; label: 5'-32P; hairpin
[16] = hairpin with 5' G-rich bulge and internal loop

GCAGAUGUCUAUGAUACCACCCGGUACAGGAGAUAUCUGCA (structured_RNA) [TL-let-7g Δbulge]
Kd (Lin28 (Lin28A) [1]): 0.9 ± 0.2 nM

GCAGAUUGAGGGUCUUGUACCACCCGGUACAAGAUAUCUGCA (structured_RNA) [TL-let-7g Δiloop]
Kd (Lin28 (Lin28A) [2]): 0.52 ± 0.09 nM

AGGAGAUAUCUGCA (ssRNA) [TL33-46]
binding result (Lin28 119-180 [3]): no binding | Kd (Lin28 (Lin28A) [4]): 0.5 ± 0.1 nM

GCCGCGGGGCCUUCGCCGCACACGGCA (structured_RNA) [TL-miR-99b]
Kd (Lin28 (Lin28A) [5]): 15 nM

GCGACUGUUGAAUCUCAUGGCGCA (structured_RNA) [TL-miR-21a]
Kd (Lin28 (Lin28A) [5]): 13 nM

GCAGAUUGAGGGUCUAUGAUACCACCCGGUACAGGAGAUAUCUGCA (structured_RNA, 2-aminopurine at A9) [TL-let-7g 2-AP9]
apparent K (half saturation) (Lin28 (Lin28A) [6]): ~548 nM

GCAGAUUGAGGGUCUAUGAUACCACCCGGUACAGGAGAUAUCUGCA (structured_RNA, 2-aminopurine at A21) [TL-let-7g 2-AP21]
apparent K (half saturation) (Lin28 (Lin28A) [6]): 500 nM

GCAGAUUGAGGGUCUAUGAUACCACCCGGUACAGGAGAUAUCUGCA (structured_RNA, 2-aminopurine at A31) [TL-let-7g 2-AP31]
apparent K (half saturation) (Lin28 (Lin28A) [7]): 1300 nM

GCAGAUUGAGGGUCUAUGAUACCACCCGGUACAGGAGAUAUCUGCA (structured_RNA, 2-aminopurine at A36) [TL-let-7g 2-AP36]
apparent K (half saturation) (Lin28 (Lin28A) [6]): ~548 nM

B1: duplexbulge (dsRNA)
RNA 1: CGUACAGAUUGAGGGUGACAUCG
RNA 2: CGAUGUCAUAUCUGUACG
apparent K (half saturation) (Lin28 (Lin28A) [8]): 58 nM | apparent K (half saturation) (Lin28 119-180 [9]): 99 nM | apparent K (half saturation) (Lin28 C139A/C161A [10]): 354 nM

GCAGAUUGAGGGUCUAUGAUACCGCAAGGUACAGGAGAUAUCUGCA (structured_RNA) [TL-let-7g GNRA loop]
Kd (Lin28 (Lin28A) [11]): 0.4 ± 0.2 nM

AUUGAGGGUCUAUA (ssRNA) [TL5-18]
binding result (Lin28 119-180 [3]): no binding | Kd (Lin28 (Lin28A) [4]): 1.7 ± 0.4 nM

GGUACAGGAGAUAU (ssRNA) [TL28-41]
binding result (Lin28 119-180 [3]): no binding | Kd (Lin28 (Lin28A) [4]): 0.29 ± 0.08 nM

GCAGAUUGAGGGUCUAUGAUACCACCCGGUACAGGAGAUAUCUGCA (structured_RNA) [TL-let-7g]
binding result (Lin28 119-180 [12]; [16]): binds | binding result (Lin28 (Lin28A) [13]; [16]): binds | binding result [14]: binds

GCAGAUUUAGGGUCACACCCACCACUGGGAGAUAUCUGCA (structured_RNA) [TL-let-7a-1]
binding result (Lin28 119-180 [12]; hairpin): binds | binding result (Lin28 (Lin28A) [13]; hairpin): binds

GCAGAUUUAGGGCAGAGAUUUUGCCCACAAGGAGUUAUCUGCA (structured_RNA) [TL-let-7d]
binding result (Lin28 119-180 [12]; hairpin): binds | binding result (Lin28 (Lin28A) [13]; hairpin): binds | binding result (Lin28 C139A/C161A [15]): binds

UCUAUGAUACCACC (ssRNA) [TL13-26]
Kd (Lin28 (Lin28A) [4]): ~43.3 nM

UCUAUCAAACCACC (ssRNA) [TL13-26V]
binding result (Lin28 (Lin28A) [4]): no binding

AUACCACCCGGUAC (ssRNA) [TL19-32]
binding result (Lin28 (Lin28A) [4]): no binding

GGUACACCACAUAU (ssRNA) [TL28-41V]
Kd (Lin28 (Lin28A) [4]): ~43.3 nM

Source: publication PMC3985620, “Stepwise assembly of multiple Lin28 proteins on the terminal loop of let-7 miRNA precursors”
